From patent publication US20230381228A1 (University of California, published 2023) come the findings set out here.

For this assay, the target named is T1, dipeptidyl aminopeptidase-like protein 6 (DPP6), human isoform 1 (human, UniProt P42658 117-865, limits assumed).
T1 construct: also called DPPX; DPP6 L
Kind of assay: affinity, method not stated (Table 1-4).

T1 sequence (P42658 117-865 limits assumed): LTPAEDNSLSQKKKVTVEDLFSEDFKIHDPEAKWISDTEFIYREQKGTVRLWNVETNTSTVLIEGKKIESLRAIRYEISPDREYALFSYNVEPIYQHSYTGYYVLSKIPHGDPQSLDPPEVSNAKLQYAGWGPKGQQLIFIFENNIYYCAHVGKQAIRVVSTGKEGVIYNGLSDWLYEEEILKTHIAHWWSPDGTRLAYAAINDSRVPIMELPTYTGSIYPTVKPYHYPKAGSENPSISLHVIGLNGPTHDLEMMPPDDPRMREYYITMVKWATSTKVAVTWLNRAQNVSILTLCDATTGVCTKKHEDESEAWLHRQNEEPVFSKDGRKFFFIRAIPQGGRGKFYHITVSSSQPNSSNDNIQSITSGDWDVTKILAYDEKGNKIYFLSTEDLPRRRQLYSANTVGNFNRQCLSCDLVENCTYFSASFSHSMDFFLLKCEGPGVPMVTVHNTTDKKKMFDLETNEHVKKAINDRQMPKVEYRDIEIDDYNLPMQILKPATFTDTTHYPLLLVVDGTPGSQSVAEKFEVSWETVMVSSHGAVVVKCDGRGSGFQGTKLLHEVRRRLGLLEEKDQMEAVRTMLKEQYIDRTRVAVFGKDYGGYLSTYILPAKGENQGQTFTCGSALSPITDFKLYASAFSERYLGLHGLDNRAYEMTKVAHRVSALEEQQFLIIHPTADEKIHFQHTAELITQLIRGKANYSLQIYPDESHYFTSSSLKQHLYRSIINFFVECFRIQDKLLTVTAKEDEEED

B1: anti-DPP6 nanobody 2hD123-A24V (VHH)
VHH: QVQLQESGGGSVQAGGSLRLSCAVSGSSYSRFRMGWFRQVPGKEREGVAAIYRSDGRTYYADSVKGRFTISQDNTKNTVYLQMNSLKPEDTAMYYCAAGAYSSYLMDANFAYWGQGTQVTVSS
A word on the Kd: it is the free concentration of one partner at which half of the binding sites on the other are occupied at equilibrium, for simple one-to-one binding. A low value points to a tighter complex. In the case of B1, binding was characterised by a dissociation constant (Kd) of 27.2 nM.

B2: anti-DPP6 nanobody 2hD6 (VHH)
VHH: QVQLQESGGGSVQAGGSLRLSCAASSYTYSYSCMAWFRQAPGKERERVASIHTGTGTANYADSAKGRFTISQDIAANTVYLQMNSLKLEDTAMYYCAARPGSAALRCTTDYSKPHDFTYWGQGTQVTVSS
The molecule B2 registered a Kd of 13 nM.

B3: anti-DPP6 nanobody 4hD29 (VHH)
VHH: QVQLQESGGGLVQPGGSLRLSCAASGFTFSSNYMTWVRQAPGKGPEWVSGINPDGSSTYYADSVKGRFTISRDNAKNTLYLQMNSLKSEDTALYKCATGAAPRIPTTLRGQGTQVTVSS
In turn, B3 showed an equilibrium dissociation constant (Kd) of 1.2 nM.

B4: anti-DPP6 nanobody 2hD1 (VHH)
VHH: QVQLQESGGGLVQPGGSLRLSCAASGYPYGYTFSSYCMRWFRQAPGKDREGVARFERNGLTTYYDDSVKGRFTISQDNVKNTVYLQMNSLKPEDTATYYCAAAPKQLRTCGDYNYWGQGTQVTVSS
Molecule B4 yielded a Kd of 69 nM.
